Patent US20030119096A1 (published 2003)

What was measured:
rat GALR2 receptor (rat) = rat GALR2 receptor (rat) (UniProt O08726); test: cell-based or functional assay
rat GALR1 receptor (rat) = rat GALR1 receptor (rat) (UniProt Q62805); test: cell-based or functional assay
[1] = biological target: human GALR3 receptor (human) (UniProt O60755); test: cell-based or functional assay
rat GALR3 receptor = biological target: T1, rat GALR3 receptor (rat, UniProt O88626 1-370); test: porcine 125I-galanin competition binding, 293 #105
T1 construct: also called rGALR3; rGalR3
T1 sequence: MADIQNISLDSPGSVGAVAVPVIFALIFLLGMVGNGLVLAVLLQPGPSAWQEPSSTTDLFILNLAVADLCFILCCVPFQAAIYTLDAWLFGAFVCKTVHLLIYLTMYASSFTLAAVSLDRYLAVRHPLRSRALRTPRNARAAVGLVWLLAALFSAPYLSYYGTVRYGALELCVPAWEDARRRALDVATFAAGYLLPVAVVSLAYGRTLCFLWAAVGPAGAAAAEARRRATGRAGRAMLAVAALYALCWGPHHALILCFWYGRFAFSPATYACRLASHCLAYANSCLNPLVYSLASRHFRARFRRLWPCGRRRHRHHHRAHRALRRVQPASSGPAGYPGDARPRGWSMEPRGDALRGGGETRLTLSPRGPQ

Chain of rat GALR2 receptor (rat) (O08726 whole entry): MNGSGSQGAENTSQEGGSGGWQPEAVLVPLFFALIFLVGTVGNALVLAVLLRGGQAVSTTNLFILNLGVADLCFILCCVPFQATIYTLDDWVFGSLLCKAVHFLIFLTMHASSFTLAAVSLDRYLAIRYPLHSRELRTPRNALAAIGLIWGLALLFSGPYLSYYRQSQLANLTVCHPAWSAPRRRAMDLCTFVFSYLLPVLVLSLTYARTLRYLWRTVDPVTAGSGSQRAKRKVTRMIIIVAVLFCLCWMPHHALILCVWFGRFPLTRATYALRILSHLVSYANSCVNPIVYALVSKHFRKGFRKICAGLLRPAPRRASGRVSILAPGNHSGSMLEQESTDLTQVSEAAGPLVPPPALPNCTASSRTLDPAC
Chain of rat GALR1 receptor (rat) (Q62805 whole entry): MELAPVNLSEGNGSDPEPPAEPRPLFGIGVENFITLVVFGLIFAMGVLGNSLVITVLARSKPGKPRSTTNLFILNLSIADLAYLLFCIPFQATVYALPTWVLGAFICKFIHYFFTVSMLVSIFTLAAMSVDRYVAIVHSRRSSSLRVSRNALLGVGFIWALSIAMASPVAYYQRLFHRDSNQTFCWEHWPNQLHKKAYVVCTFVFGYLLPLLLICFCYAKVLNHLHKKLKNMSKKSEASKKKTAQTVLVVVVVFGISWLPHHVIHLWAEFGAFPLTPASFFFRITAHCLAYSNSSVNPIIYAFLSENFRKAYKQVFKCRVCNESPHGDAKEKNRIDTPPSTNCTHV
Chain of human GALR3 receptor (human) (O60755 whole entry): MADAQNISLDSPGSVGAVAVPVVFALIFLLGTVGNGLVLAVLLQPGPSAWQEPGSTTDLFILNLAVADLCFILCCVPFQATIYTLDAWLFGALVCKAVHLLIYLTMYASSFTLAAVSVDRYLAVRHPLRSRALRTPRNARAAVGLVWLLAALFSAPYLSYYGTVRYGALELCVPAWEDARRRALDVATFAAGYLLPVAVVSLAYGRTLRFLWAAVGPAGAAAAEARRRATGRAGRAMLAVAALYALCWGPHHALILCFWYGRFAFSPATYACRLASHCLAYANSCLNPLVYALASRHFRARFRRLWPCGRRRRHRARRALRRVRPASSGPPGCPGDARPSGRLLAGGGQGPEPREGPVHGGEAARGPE

For C7 (peptide), the EC50, AA (arachidonic acid release), CHO #79 (rat GALR2 receptor (rat)) was 2.41 nM, the EC50, cAMP, LM(tk-) (rat GALR1 receptor (rat)) was 0.52 nM and the Oocyte EC50 for stimulation of GIRKs [1] was 343 nM.

B1: (-)9 to (+)29 galanin, porcine (peptide, UniProt P07480 24-61, looked up)
peptide: LGSPVKEKRGWTLNSAGYLLGPHAIDNHRSFHDKYGLA
notes: range -9 to +29; also called galanin -9 to +29
With B1 the Ki (rat GALR3 receptor) was 4.17 nM.
